Patent publication US20110098217A1 (INDIANA UNIVERSITY RESEARCH AND TECHNOLOGY, published 2011)
Where two headings read alike, the source gives them in different places. Bridge positions count the residues as written; N and C are the ends. Square brackets hold non-standard residues; d marks the D form. Side chains are listed from the residue outwards. Ends that are not written are not given here. Abu(4-SO3H) = N[C@@H](CCS(=O)(=O)O)C(=O)O; PhLac = O=C(O)[C@@H](O)Cc1ccccc1

Columns and labels:
[1] = target: Receptor (human) (UniProt P47871); assay: receptor binding competition
[2] = target: T1, human glucagon receptor (human, UniProt P47871 26-477); assay: cell-based or functional assay
[3] = target: T2, human GLP-1 receptor (human, UniProt P43220 24-463); assay: cell-based or functional assay
[4] = target: T1, human glucagon receptor; assay: cell-based or functional assay; remark: listed apart in the source
[5] = target: T2, human GLP-1 receptor; assay: cell-based or functional assay; remark: listed apart in the source
[6] = target: T1, human glucagon receptor; assay: SPA competition vs 125I-glucagon, receptor membranes
[7] = target: T1, human glucagon receptor; assay: cell-based or functional assay; remark: listed apart in the source
[8] = target: T1, human glucagon receptor; assay: cell-based or functional assay; remark: listed apart in the source
[9] = target: T2, human GLP-1 receptor; assay: cell-based or functional assay; remark: listed apart in the source
[10] = target: T1, human glucagon receptor; assay: SPA competition vs 125I-glucagon, receptor membranes; remark: listed apart in the source
[11] = target: T1, human glucagon receptor; assay: cell-based or functional assay; remark: listed apart in the source
[12] = target: T1, human glucagon receptor; assay: cell-based or functional assay; remark: listed apart in the source
[13] = target: T2, human GLP-1 receptor; assay: cell-based or functional assay; remark: listed apart in the source
[14] = target: T1, human glucagon receptor; assay: cell-based or functional assay; remark: listed apart in the source
[15] = target: T2, human GLP-1 receptor; assay: cell-based or functional assay; remark: listed apart in the source

T1 sequence (P47871 26-477): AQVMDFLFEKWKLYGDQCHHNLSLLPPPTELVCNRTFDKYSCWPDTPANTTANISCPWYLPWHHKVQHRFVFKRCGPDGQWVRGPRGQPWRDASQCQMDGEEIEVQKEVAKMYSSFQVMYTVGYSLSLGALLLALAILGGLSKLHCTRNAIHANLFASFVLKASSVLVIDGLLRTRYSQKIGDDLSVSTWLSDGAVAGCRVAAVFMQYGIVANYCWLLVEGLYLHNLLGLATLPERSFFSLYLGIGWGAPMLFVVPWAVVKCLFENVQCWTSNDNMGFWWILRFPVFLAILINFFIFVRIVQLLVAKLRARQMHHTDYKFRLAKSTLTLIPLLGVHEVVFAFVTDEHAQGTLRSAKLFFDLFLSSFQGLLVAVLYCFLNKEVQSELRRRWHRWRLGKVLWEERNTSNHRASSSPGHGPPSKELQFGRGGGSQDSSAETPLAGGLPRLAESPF
Receptor (human), sequence (P47871 26-477): as above

## [3,4-2(F)-F6, E9]G(6-29)-NH2
[1]
  IC50: 36.7 nM

## [MCA6, E9]G(6-29)-NH2
[1]
  IC50: 114 nM

## [2-Nal6, E9]G(6-29)-NH2
[1]
  IC50: 95.2 nM

## [BMA6, E9]G(6-29)-NH2
[1]
  IC50: 80.6 nM

## [Ac-F6, E9]G(6-29)-NH2
[1]
  IC50: 37.1 nM

B1: [PLA6, E16K20(lactam), E21, D28] G(6-29) (peptide)
peptide: [PhLac]TSDYSKYLDERRAKEFVQWLMDT-NH2
modifications: lactam 11-15; N-terminus assumed
SMILES: CSCC[C@H](NC(=O)[C@H](CC(C)C)NC(=O)[C@H](Cc1c[nH]c2ccccc12)NC(=O)[C@H](CCC(N)=O)NC(=O)[C@@H](NC(=O)[C@H](Cc1ccccc1)NC(=O)[C@H](CCC(=O)O)NC(=O)[C@@H]1CCCCNC(=O)CC[C@H](NC(=O)[C@H](CC(=O)O)NC(=O)[C@H](CC(C)C)NC(=O)[C@H](Cc2ccc(O)cc2)NC(=O)[C@H](CCCCN)NC(=O)[C@H](CO)NC(=O)[C@H](Cc2ccc(O)cc2)NC(=O)[C@H](CC(=O)O)NC(=O)[C@H](CO)NC(=O)[C@@H](NC(=O)[C@@H](O)Cc2ccccc2)[C@@H](C)O)C(=O)N[C@@H](CCCNC(=N)N)C(=O)N[C@@H](CCCNC(=N)N)C(=O)N[C@@H](C)C(=O)N1)C(C)C)C(=O)N[C@@H](CC(=O)O)C(=O)N[C@H](C(N)=O)[C@@H](C)O
[2]
  Glucagon antagonism IC50 (inhibit 0.2-0.8 nM glucagon): 8.6 nM
[3]
  GLP-1 agonism EC50: 11.1 nM

## [PhLac]TSEYSKYLDSRRAQDFVQWLMNT-NH2 (lactam 4-7) [[PLA6, E9K12(Lactam)] G(6-29)]
[4]
  Glucagon antagonism IC50 (inhibit 0.8 nM glucagon): 72.5 nM
[5]
  GLP-1 agonism EC50: 144 nM

## [PhLac]TS[Abu(4-SO3H)]YSKYLDSRRAQDFVQWLMNT-NH2 [[PLA^6, hCys(SO3)^9]Glucagon(aa6-29)-NH2]
[6]
  IC50: 14.2 nM
[7]
  IC50 (cAMP, inhibit 0.2 nM Glucagon): 40.2 nM

B2: [PLA^6, D^9]Glucagon(aa6-29)-COOH (peptide)
peptide: [PhLac]TSDYSKYLDSRRAQDFVQWLMNT-OH
modifications: N-terminus assumed
SMILES: CSCC[C@H](NC(=O)[C@H](CC(C)C)NC(=O)[C@H](Cc1c[nH]c2ccccc12)NC(=O)[C@H](CCC(N)=O)NC(=O)[C@@H](NC(=O)[C@H](Cc1ccccc1)NC(=O)[C@H](CC(=O)O)NC(=O)[C@H](CCC(N)=O)NC(=O)[C@H](C)NC(=O)[C@H](CCCNC(=N)N)NC(=O)[C@H](CCCNC(=N)N)NC(=O)[C@H](CO)NC(=O)[C@H](CC(=O)O)NC(=O)[C@H](CC(C)C)NC(=O)[C@H](Cc1ccc(O)cc1)NC(=O)[C@H](CCCCN)NC(=O)[C@H](CO)NC(=O)[C@H](Cc1ccc(O)cc1)NC(=O)[C@H](CC(=O)O)NC(=O)[C@H](CO)NC(=O)[C@@H](NC(=O)[C@@H](O)Cc1ccccc1)[C@@H](C)O)C(C)C)C(=O)N[C@@H](CC(N)=O)C(=O)N[C@H](C(=O)O)[C@@H](C)O
[6]
  IC50: 15.5 nM
[7]
  IC50 (cAMP, inhibit 0.1 nM Glucagon): 13.2 nM

B3: [PLA^6, D^9]Glucagon(aa6-29)-NH2 (peptide)
peptide: [PhLac]TSDYSKYLDSRRAQDFVQWLMNT-NH2
modifications: N-terminus assumed
SMILES: CSCC[C@H](NC(=O)[C@H](CC(C)C)NC(=O)[C@H](Cc1c[nH]c2ccccc12)NC(=O)[C@H](CCC(N)=O)NC(=O)[C@@H](NC(=O)[C@H](Cc1ccccc1)NC(=O)[C@H](CC(=O)O)NC(=O)[C@H](CCC(N)=O)NC(=O)[C@H](C)NC(=O)[C@H](CCCNC(=N)N)NC(=O)[C@H](CCCNC(=N)N)NC(=O)[C@H](CO)NC(=O)[C@H](CC(=O)O)NC(=O)[C@H](CC(C)C)NC(=O)[C@H](Cc1ccc(O)cc1)NC(=O)[C@H](CCCCN)NC(=O)[C@H](CO)NC(=O)[C@H](Cc1ccc(O)cc1)NC(=O)[C@H](CC(=O)O)NC(=O)[C@H](CO)NC(=O)[C@@H](NC(=O)[C@@H](O)Cc1ccccc1)[C@@H](C)O)C(C)C)C(=O)N[C@@H](CC(N)=O)C(=O)N[C@H](C(N)=O)[C@@H](C)O
[6]
  IC50: 13.8 nM
[7]
  IC50 (cAMP, inhibit 0.1 nM Glucagon): 6.9 nM

## SQGT[PhLac]TSDYSKYLDERRAKDFVQWLMDT-NH2 (lactam 15-19; also: ester (depsipeptide) bond Thr5-PLA6) [[S2Q3-O-PLA6, D9, E16K20(Lactam), D28] G(2-29)]
[8]
  Glucagon antagonism IC50 (inhibit 0.8 nM glucagon): 3.14 nM
[9]
  GLP-1 agonism EC50: 45.7 nM
[4]
  Glucagon antagonism IC50 (inhibit 0.8 nM glucagon): 20.9 nM
[5]
  GLP-1 agonism EC50: 112 nM

## SQGTTSDYSKYLDSRRAQDFVQWLMNT-NH2 (His1 and Phe6 deleted; also called Cmpd) [[desHis^1, desPhe^6] Glucagon-NH2]
[10]
  IC50: 130 nM
[11]
  cAMP Induction EC50: 1180 nM

## [PhLac]TSDK([Glu-C16 fatty acid])SKYLDERRAKDFVQWLMDT-NH2 [[PLA6, K10(EC16FA), E16, K20,D28]G(6-29)]
[12]
  Glucagon antagonism IC50 (inhibit 0.4 nM glucagon): 222 nM
[13]
  GLP-1 agonism EC50: 105 nM

## SQGTFTSEYSKYLDSRRAQDFVQFLLNT-NH2 [[desHis^1, Glu^9, Phe^25, Leu^27]Glucagon-NH2]
[10]
  IC50: 12.6 nM
[11]
  cAMP Induction EC50: 81 nM

## SQLTFTSEYSKYLDSRRAQDFVQWLMNT-NH2 (also called Cmpd) [[desHis^1, Leu^4, Glu^9] Glucagon-NH2]
[10]
  IC50: 36.9 nM
[11]
  cAMP Induction EC50: 318 nM
  cAMP Inhibition IC50: 102 nM

## SQGTFTSEYSKYLDERRAKDFVQWLMDT-NH2 (lactam 15-19) [[S2Q3, E9, E16K20(Lactam), D28] G(2-29)]
[4]
  Glucagon antagonism IC50 (inhibit 0.8 nM glucagon): 23.4 nM
[5]
  GLP-1 agonism EC50: 284 nM

B4: [PLA6, E16, K20E24(lactam), D28]G(6-29) (peptide)
peptide: [PhLac]TSDYSKYLDERRAKDFVEWLMDT-NH2
modifications: lactam 15-19; N-terminus assumed
SMILES: CSCC[C@H](NC(=O)[C@H](CC(C)C)NC(=O)[C@H](Cc1c[nH]c2ccccc12)NC(=O)[C@@H]1CCC(=O)NCCCC[C@H](NC(=O)[C@H](C)NC(=O)[C@H](CCCNC(=N)N)NC(=O)[C@H](CCCNC(=N)N)NC(=O)[C@H](CCC(=O)O)NC(=O)[C@H](CC(=O)O)NC(=O)[C@H](CC(C)C)NC(=O)[C@H](Cc2ccc(O)cc2)NC(=O)[C@H](CCCCN)NC(=O)[C@H](CO)NC(=O)[C@H](Cc2ccc(O)cc2)NC(=O)[C@H](CC(=O)O)NC(=O)[C@H](CO)NC(=O)[C@@H](NC(=O)[C@@H](O)Cc2ccccc2)[C@@H](C)O)C(=O)N[C@@H](CC(=O)O)C(=O)N[C@@H](Cc2ccccc2)C(=O)N[C@@H](C(C)C)C(=O)N1)C(=O)N[C@@H](CC(=O)O)C(=O)N[C@H](C(N)=O)[C@@H](C)O
[2]
  Glucagon antagonism IC50 (inhibit 0.2-0.8 nM glucagon): 74.4 nM
[3]
  GLP-1 agonism EC50: 240 nM
[14]
  Glucagon IC50: 74 nM
[15]
  GLP-1 EC50: 239 nM

## AEGT[PhLac]TSDYSKYLDERRAKDFVQWLMDT-NH2 (lactam 15-19; also: PLA6 linked to Thr5 by an ester bond (depsipeptide)) [[A2E3-O-PLA6, D9, E16K20(Lactam), D28] G(2-29)]
[8]
  Glucagon antagonism IC50 (inhibit 0.8 nM glucagon): 4.68 nM
[9]
  GLP-1 agonism EC50: 14 nM
[4]
  Glucagon antagonism IC50 (inhibit 0.8 nM glucagon): 21.8 nM
[5]
  GLP-1 agonism EC50: 18 nM

## [PhLac]TSDYSKYLDERRAQDFVEWLMKT-NH2 (lactam 19-23; not fully specified) [[PLA6, E16, E24K28(lactam)]G(6-29)]
[2]
  Glucagon antagonism IC50 (inhibit 0.2-0.8 nM glucagon): 22.4 nM
[3]
  GLP-1 agonism EC50: 289 nM
[14]
  Glucagon IC50: 22 nM
[15]
  GLP-1 EC50: 289 nM

B5: [PLA^6, E^9]Glucagon (aa6-29 + CEX)-NH2 (peptide)
peptide: [PhLac]TSEYSKYLDSRRAQDFVQWLMNTGPSSGAPPPS-NH2
modifications: N-terminus assumed
SMILES: CSCC[C@H](NC(=O)[C@H](CC(C)C)NC(=O)[C@H](Cc1c[nH]c2ccccc12)NC(=O)[C@H](CCC(N)=O)NC(=O)[C@@H](NC(=O)[C@H](Cc1ccccc1)NC(=O)[C@H](CC(=O)O)NC(=O)[C@H](CCC(N)=O)NC(=O)[C@H](C)NC(=O)[C@H](CCCNC(=N)N)NC(=O)[C@H](CCCNC(=N)N)NC(=O)[C@H](CO)NC(=O)[C@H](CC(=O)O)NC(=O)[C@H](CC(C)C)NC(=O)[C@H](Cc1ccc(O)cc1)NC(=O)[C@H](CCCCN)NC(=O)[C@H](CO)NC(=O)[C@H](Cc1ccc(O)cc1)NC(=O)[C@H](CCC(=O)O)NC(=O)[C@H](CO)NC(=O)[C@@H](NC(=O)[C@@H](O)Cc1ccccc1)[C@@H](C)O)C(C)C)C(=O)N[C@@H](CC(N)=O)C(=O)N[C@H](C(=O)NCC(=O)N1CCC[C@H]1C(=O)N[C@@H](CO)C(=O)N[C@@H](CO)C(=O)NCC(=O)N[C@@H](C)C(=O)N1CCC[C@H]1C(=O)N1CCC[C@H]1C(=O)N1CCC[C@H]1C(=O)N[C@@H](CO)C(N)=O)[C@@H](C)O
[6]
  IC50: 40.3 nM
[7]
  IC50 (cAMP, inhibit 0.1 nM Glucagon): 24.8 nM

## HAEGT[PhLac]TSDYSKYLDERRAKDFVQWLMDT-NH2 (lactam 16-20; also: PLA6 linked to Thr5 by an ester bond (depsipeptide)) [[H1A2E3-O-PLA6, D9, E16K20(Lactam), D28] G(1-29)]
[8]
  Glucagon antagonism IC50 (inhibit 0.8 nM glucagon): 9.65 nM
[9]
  GLP-1 agonism EC50: 6.2 nM
